From patent US20130251724A1 (GlaxoSmithKline, published 2013)
Where “and” joins values, the source holds several entries; their conditions need not be identical. Equal entries are not always repeated. Where two headings read alike, the source gives them in different places. One block for each binder: values may come before it.

How the values were obtained:
[1] = molecular target: T1, Cynomolgus OSM (cynomolgus, UniProt A0A2K5VPC6 26-221); experiment: cell-based or functional assay
T1 sequence: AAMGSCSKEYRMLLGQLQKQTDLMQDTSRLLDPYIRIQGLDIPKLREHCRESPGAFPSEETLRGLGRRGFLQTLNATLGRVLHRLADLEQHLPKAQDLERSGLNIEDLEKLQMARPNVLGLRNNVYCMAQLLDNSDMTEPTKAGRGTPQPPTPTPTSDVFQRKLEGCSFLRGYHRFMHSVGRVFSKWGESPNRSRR

[2] = molecular target: T2, Human OSM (human, UniProt P13725 26-221); experiment: cell-based or functional assay
T2 sequence: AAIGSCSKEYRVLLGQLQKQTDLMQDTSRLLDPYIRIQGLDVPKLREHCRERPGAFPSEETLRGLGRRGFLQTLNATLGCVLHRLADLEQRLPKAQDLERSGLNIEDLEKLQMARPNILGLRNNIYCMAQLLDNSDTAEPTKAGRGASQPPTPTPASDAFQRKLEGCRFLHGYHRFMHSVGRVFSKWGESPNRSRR

[3] = molecular target: T1, Cynomolgus OSM; experiment: BIAcore kinetics
[4] = molecular target: T2, Human OSM; experiment: BIAcore kinetics
[5] = molecular target: Marmoset OSM (marmoset); experiment: cell-based or functional assay
[6] = molecular target: T1, Cynomolgus OSM; experiment: human gp130 ELISA, inhibition of OSM binding to gp130
[7] = molecular target: T2, Human OSM; experiment: as above
[8] = molecular target: T2, Human OSM; experiment: cell-based or functional assay; remark: listed apart in the source
[9] = molecular target: T2, Human OSM; experiment: cell-based or functional assay; remark: listed apart in the source
[10] = molecular target: T2, Human OSM; experiment: cell-based or functional assay; remark: listed apart in the source
[11] = molecular target: T2, Human OSM; experiment: cell-based or functional assay; remark: listed apart in the source
[12] = molecular target: T3, Endogenous human OSM (neutrophil-derived) (human, UniProt P13725 26-221, limits assumed); experiment: gp130 ELISA with endogenous neutrophil-derived human OSM
T3 construct: Native OSM generated from GM-CSF stimulation of healthy human neutrophils; also called native OSM; endogenous OSM
T3 sequence: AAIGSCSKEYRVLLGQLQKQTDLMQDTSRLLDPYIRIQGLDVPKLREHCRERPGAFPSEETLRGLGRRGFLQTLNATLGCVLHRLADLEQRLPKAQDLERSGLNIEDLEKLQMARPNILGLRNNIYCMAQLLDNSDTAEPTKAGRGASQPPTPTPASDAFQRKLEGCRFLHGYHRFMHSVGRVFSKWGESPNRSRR

[13] = molecular target: T2, Human OSM; experiment: cell-based or functional assay; remark: listed apart in the source
[14] = molecular target: T1, Cynomolgus OSM; experiment: BIAcore kinetics, purified antibody
[15] = molecular target: T2, Human OSM; experiment: BIAcore kinetics, purified antibody
[16] = molecular target: T2, Human OSM; experiment: cell-based or functional assay; remark: listed apart in the source
[17] = molecular target: T1, Cynomolgus OSM; experiment: cell-based or functional assay; remark: listed apart in the source
[18] = molecular target: T2, Human OSM; experiment: cell-based or functional assay; remark: listed apart in the source
[19] = molecular target: T2, Human OSM; experiment: cell-based or functional assay; remark: listed apart in the source
[20] = molecular target: T2, Human OSM; experiment: cell-based or functional assay; remark: listed apart in the source
[21] = molecular target: T1, Cynomolgus OSM; experiment: Kinexa solution phase affinity
Description: (§1) Kinexa (Sapidyne Instruments 3200) solution phase affinity was used to determine the overall affinity of anti-OSM antibody H0(huCDRH1)L1 and Humanised 15E10 (an unrelated OSM antibody) to human, cynomolgus macaque, rhesus macaque and marmoset OSM (Table 15). Humanised 15E10 was added for comparison purposes.
(§2) OSM beads were prepared either by adsorption (polymethylmethacrylate beads-PMMA) or amine coupling (NHS-activated sepharose beads). The range of OSM molecules studied necessitated the generation of beads coated with different concentrations of OSM. For the solution phase portion of the assay, a fixed concentration of antibody was incubated with a broad range of OSM concentrations and allowed to reach equilibrium by incubation at r.t. for at least 2 h before analysis proceeded. The OSM beads were then used to determine the amount of free antibody present in the solution phase samples, by means of the free antibody binding to the OSM bead matrix then detected using an appropriate secondary antibody (either anti-human or anti-mouse depending on the construct being tested) labelled with a fluorescent dye. The binding curves where fitted using the Kinexa Pro analysis software inherent to the machine. Multiple runs using varying starting concentrations of antibody were then compiled and analysed using the n-curve analysis software to give a more accurate determination of affinity.

[22] = molecular target: T2, Human OSM; experiment: Kinexa solution phase affinity
Description: as §1, §2

[23] = molecular target: T4, Marmoset OSM (marmoset); experiment: Kinexa solution phase affinity
T4 construct: also called Marm OSM
Description: as §1, §2

[24] = molecular target: T5, Rhesus OSM (rhesus macaque, UniProt F7GF43 26-221); experiment: Kinexa solution phase affinity
T5 construct: also called rhesus macaque OSM
T5 sequence: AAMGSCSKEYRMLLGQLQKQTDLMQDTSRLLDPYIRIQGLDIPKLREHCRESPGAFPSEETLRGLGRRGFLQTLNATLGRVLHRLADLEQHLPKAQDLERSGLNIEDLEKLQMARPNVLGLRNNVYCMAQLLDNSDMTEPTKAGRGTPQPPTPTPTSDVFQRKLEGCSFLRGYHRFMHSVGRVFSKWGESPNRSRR
Description: as §1, §2

[25] = molecular target: T1, Cynomolgus OSM; experiment: BIAcore kinetics, purified antibody; remark: listed apart in the source
[26] = molecular target: T2, Human OSM; experiment: BIAcore kinetics, purified antibody; remark: listed apart in the source
[27] = molecular target: T1, Cynomolgus OSM; experiment: BIAcore kinetics; remark: listed apart in the source
[28] = molecular target: T2, Human OSM; experiment: BIAcore kinetics; remark: listed apart in the source
[29] = molecular target: T4, Marmoset OSM; experiment: cell-based or functional assay; remark: listed apart in the source
[30] = molecular target: T1, Cynomolgus OSM; experiment: cell-based or functional assay; remark: listed apart in the source
[31] = molecular target: T2, Human OSM; experiment: cell-based or functional assay; remark: listed apart in the source
[32] = molecular target: T1, Cynomolgus OSM; experiment: BIAcore kinetics; remark: listed apart in the source
[33] = molecular target: T2, Human OSM; experiment: BIAcore kinetics; remark: listed apart in the source
[34] = molecular target: T2, Human OSM; experiment: cell-based or functional assay; remark: listed apart in the source
[35] = molecular target: T3, Endogenous human OSM …; experiment: gp130 ELISA with endogenous neutrophil-derived human OSM; remark: listed apart in the source
[36] = molecular target: T1, Cynomolgus OSM; experiment: human gp130 ELISA, inhibition of OSM binding to gp130; remark: listed apart in the source
[37] = molecular target: T2, Human OSM; experiment: as above; remark: listed apart in the source
[38] = molecular target: T2, Human OSM; experiment: cell-based or functional assay; remark: listed apart in the source

KB cell neutralisation assay, mean IC50 [1]: 0.344 µg/ml and 2.3 nM
KB cell neutralisation assay, mean IC50 [2]: 0.049 µg/ml and 327 pM
Kd [3]: 9.31 nM
Kd [4]: 2.09 nM
IC50 (read off the curve); IL-6 release from KB cells stimulated with marmoset OSM [5]: ~0.05 µg/mL
IC50 [6]: 0.14 µg/mL and 0.993 nM
IC50 [7]: 0.08 µg/mL and 0.533 nM
B1: 2B7, murine anti-OSM mAb (antibody, V domains shown)
VH: EVQLVESGGGLVKPGGSLKLSCAASGFTFSNYAMSWVRQTPEKRLEWVATISDGGGYTYYLDNGQGRFTISRDNAKNNLYLQMSHLKSEDTAMYYCARDVGLTTFWYFDVWGTGTTVTVSS
VL: DIVLTQSPVSLVISLGQRATISCRASKSVSPSSYNFMHWYQQRPGQPPKLLITYASNLESGVPARFSGSGSGTDFTLNIHPVEEEDAATYYCQHSREFPFTFGGGTRLEIK
notes: Mouse hybridoma mAb; also called 2B7/A6; 2B7.A6

IC50 (read off the curve); IL-6 release from HFLS-RA cells stimulated with 3 ng/ml human OSM [8]: ~2 nM
IC50 (read off the curve); MCP-1 release from IPF human lung fibroblasts stimulated with 3 ng/ml OSM [9]: ~2 µg/mL
IC50 (read off the curve); MCP-1 release from HFLS-RA cells stimulated with 3 ng/ml human OSM [10]: ~2 nM
IC50 (read off the curve); IL-6 release from normal human lung fibroblasts stimulated with 3 ng/ml OSM [11]: ~0.6 µg/mL
IC50 [12]: 0.076 µg/mL and 0.507 nM
IC50 (read off the curve); IL-6 release from HFLS-RA cells stimulated with 0.3 ng/ml human OSM [13]: ~0.1 nM
Kd [14]: 0.59 nM
koff [14]: 0.00031 s⁻¹
kon [14]: 526000 M⁻¹ s⁻¹
Kd [15]: 1.43 nM
koff [15]: 0.000615 s⁻¹
kon [15]: 429000 M⁻¹ s⁻¹
IC50 (read off the curve); IL-6 release from IPF human lung fibroblasts stimulated with 3 ng/ml OSM [16]: ~1 µg/mL
KB cell neutralisation assay, mean IC50 [17]: 0.0054 µg/ml and 36 pM
KB cell neutralisation assay, mean IC50 [18]: 0.0391 µg/ml and 261 pM
IC50 (read off the curve); MCP-1 release from HFLS-RA cells stimulated with 0.3 ng/ml human OSM [19]: ~0.2 nM
IC50 (read off the curve); MCP-1 release from normal human lung fibroblasts stimulated with 3 ng/ml OSM [20]: ~1 µg/mL
Kd [21]: 0.102 nM
Kd [22]: 0.727 nM
Kd [23]: 6.1 nM
Kd [24]: 0.102 nM
Kd [25]: 0.64 nM
koff [25]: 0.000324 s⁻¹
kon [25]: 507000 M⁻¹ s⁻¹
Kd [26]: 0.882 nM
koff [26]: 0.000649 s⁻¹
kon [26]: 736000 M⁻¹ s⁻¹
B2: 15E10h, non-competitive anti-OSM humanised antibody (antibody, human IgG1, kappa, V domains shown)
VH: QVQLVESGGGVVQPGRSLRLSCAASGFSLTNYGVHWVRQAPGKGLEWVAVIWRGGSTDYNAAFMSRFTISKDNSKNTLYLQMNSLRAEDTAVYYCAKSPNSNFYWYFDVWGRGTLVTVSS
VL: EIVLTQSPATLSLSPGERATLSCSGSSSVSYMYWYQQKPGQAPRLLIEDTSNLASGIPARFSGSGSGTDYTLTISNLEPEDFAVYYCQQWSSYPPTFGQGTKLEIKR
notes: also called Humanised 15E10; humanised 15E10

KB cell neutralisation assay, mean IC50 [1]: 0.006 µg/ml and 40 pM
KB cell neutralisation assay, mean IC50 [2]: 0.008 µg/ml and 53 pM
fold increased affinity compared with 15E10 [27]: 11 fold
fold increased affinity compared with 15E10 [28]: 8 fold
IC50 [12]: 0.009 µg/mL and 0.06 nM
Kd [3]: 0.308 nM
Kd [4]: 0.55 nM
KB cell neutralisation assay, mean IC50 [17]: 0.0017 µg/ml and 11 pM
KB cell neutralisation assay, mean IC50 [18]: 0.0026 µg/ml and 17 pM
KB cell neutralisation assay, mean IC50 [29]: 0.0017 µg/ml and 11 pM
KB cell neutralisation assay, mean IC50 [30]: 0.034 µg/ml and 227 pM
KB cell neutralisation assay, mean IC50 [31]: 0.054 µg/ml and 360 pM
Kd [32]: 0.308 nM
koff [32]: 2.99e-05 s⁻¹
kon [32]: 96900 M⁻¹ s⁻¹
Kd [33]: 0.549 nM
koff [33]: 6.14e-05 s⁻¹
kon [33]: 112000 M⁻¹ s⁻¹
IC50 (read off the curve); IL-6 release from KB cells stimulated with human OSM, 25% human AB serum [34]: ~0.02 µg/mL
IC50 [35]: 0.009 µg/mL and 0.06 nM
IC50 [36]: 0.017 µg/mL and 0.113 nM
IC50 [37]: 0.044 µg/mL and 0.293 nM
IC50 [6]: 0.01 µg/mL and 0.04 nM
IC50 [7]: 0.06 µg/mL and 0.4 nM
KB cell neutralisation assay, potency compared with 15E10 [38]: 15 fold
B3: anti human OSM mAb S168110G08(1)1A09 (10G8), murine (antibody, V domains shown)
VH: EMQLVESGEGLVEPGGSLKLSCAASGFTFSNYAMSWVRQTPEKSLEWVATISDGGSFTYYLDNVRGRFTISRDNAKNNLYLQMSHLKSDDTAMYYCARDVGHTTFWYFDVWGSGTAVTVSS
VL: DIVLTQSPVFLVVSLGQRATISCRASKSVSAAGYNFMHWYQQKPGQPPKVLIKYASNLESGVPARFSGSGSGTDFTLNIHPVEEEDAVTYYCLHSREFPFTFGGGTNLEIK
notes: Mouse hybridoma mAb; also called 10G8/A9; 10G8.A9
